Data: patent US20080085859A1, “Drug Promoting Ceramide Transport, Base Sequence for Producing the Drug, Method of Measuring Activity of Promoting Ceramide Release and Method of Measuring Activity of Promoting Intermembrane Ceramide Transfer” (JAPAN SCIENCE AND TECHNOLOGY AGENCY, priority 2003, published 2008)

Test system: LY-A2 cell
Assay: cell labeling using C5-DMB-Cer and fluorescence microscopy (ER to Golgi apparatus)
Type: cell-based, Chinese hamster
Details: C5-DMB-Cer, traced at 33° C. 15 minutes, LY-A2/hCERT, FIG. 6
Procedure: The present inventors have already made it clear that the activity of ATP dependent transport from the endoplasmic reticulum of natural ceramide (hereinafter, also referred to as ER) to Golgi apparatus can be qualitatively evaluated from the analysis of reallocation from ER of C5-DMB-Cer which is a fluorescent ceramide analogue to Golgi apparatus (J. Cell Biol. 144,673-685, 1999). As described in detail, the cell was exposed to C5-DMB-Cer at 4° C. for 30 minutes for the purpose of performing the pulse labeling of a variety of organelle membranes within a cell containing ER, after washing, it was traced at 33° C. for 15 minutes by a fluorescene microscopy observation method. A method of performing cell labeling using C5-DMB-Cer and a method of performing an observation by a fluorescence microscopy were carried out by a method of Yasuda et al (J. Biol. Chem. 276, 43994-44002, 2001) and a method of Fukasawa et al (J. Cell Biol. 144, 673-685, 1999). Specifically, after CHO-K1 cell, LY-A2 cell and LY-A2/hCERT cell grown on a coverslip made of glass were treated at 4° C. for 30 minutes in F12 medium containing 1 micro-M C5-DMB-Cer, it was washed three times in 1 mL of F12 medium. […] The sample was observed under the fluorescence microscopy immediately after it has been fixed and photographed with a digital CCD camera.

B1: hCERT protein: human CERT protein having an amino acid sequence of SEQ ID NO:1 (protein)
chain: MSDNQSWNSSGSEEDPETESGPPVERCGVLSKWTNYIHGWQDRWVVLKNNALSYYKSEDETEYGCRGSICLSKAVITPHDFDECRFDISVNDSVWYLRAQDPDHRQQWIDAIEQHKTESGYGSESSLRRHGSMVSLVSGASGYSATSTSSFKKGHSLREKLAEMETFRDILCRQVDTLQKYFDACADAVSKDELQRDKVVEDDEDDFPTTRSDGDFLHSTNGNKEKLFPHVTPKGINGIDFKGEAITFKATTAGILATLSHCIELMVKREDSWQKRLDKETEKKRRTEEAYKNAMTELKKKSHFGGPDYEEGPNSLINEEEFFDAVEAALDRQDKIEEQSQSEKVRLHWPTSLPSGDAFSSVGTHRFVQKVEEMVQNHMTYSLQDVGGDANWQLVVEEGEMKVYRREVEENGIVLDPLKATHAVKGVTGHEVCNYFWNVDVRNDWETTIENFHVVETLADNAIIIYQTHKRVWPASQRDVLYLSVIRKIPALTENDPETWIVCNFSVDHDSAPLNNRCVRAKINVAMICQTLVSPPEGNQEISRDNILCKITYVANVNPGGWAPASVLRAVAKREYPKFLKRFTSYVQEKTAGKPILF
modifications: HeLa cell
accumulation of DMB fluorescence to Golgi apparatus region: accumulation comparable to CHO-K1 cell
